{"source": "the supplement of paper PMC10567573", "parents": {"B1": {"name": "PRPH (parent)", "chain": "DEIEFLKKLHEEELRDLQVSVESQ"}, "B2": {"name": "FBF1 (parent)", "chain": "YQRPQDSEDMWGDEDFTFGAYQPT"}}, "data": [{"variants_of": "B1", "assay": "protein stability index of a GFP-peptide fusion (GPS, HEK-293T) (PSI 1-6); higher = more stable", "details": "c terminus: a fixed tail appended", "values": [{"variant": "DEIECLKKLHEEELRDLQVSVESQ", "note": "[F5C]", "protein stability index": 5.15}, {"variant": "DEIELLKKLHEEELRDLQVSVESQ", "note": "[F5L]", "protein stability index": 5.18}, {"variant": "DEIEGLKKLHEEELRDLQVSVESQ", "note": "[F5G]", "protein stability index": 5.36}, {"variant": "DEIEILKKLHEEELRDLQVSVESQ", "note": "[F5I]", "protein stability index": 4.92}, {"variant": "DEIEPLKKLHEEELRDLQVSVESQ", "note": "[F5P]", "protein stability index": 5.22}, {"variant": "DEIEALKKLHEEELRDLQVSVESQ", "note": "[F5A]", "protein stability index": 4.69}, {"variant": "DEIEDLKKLHEEELRDLQVSVESQ", "note": "[F5D]", "protein stability index": 5.27}, {"variant": "DEIENLKKLHEEELRDLQVSVESQ", "note": "[F5N]", "protein stability index": 4.9}, {"variant": "DEIEMLKKLHEEELRDLQVSVESQ", "note": "[F5M]", "protein stability index": 5}, {"variant": "DEIEKLKKLHEEELRDLQVSVESQ", "note": "[F5K]", "protein stability index": 4.73}, {"variant": "DEIEELKKLHEEELRDLQVSVESQ", "note": "[F5E]", "protein stability index": 5.47}, {"variant": "DEIEHLKKLHEEELRDLQVSVESQ", "note": "[F5H]", "protein stability index": 4.85}, {"variant": "DEIDFLKKLHEEELRDLQVSVESQ", "note": "[E4D]", "protein stability index": 4.93}, {"variant": "DEIIFLKKLHEEELRDLQVSVESQ", "note": "[E4I]", "protein stability index": 4.12}, {"variant": "DEIHFLKKLHEEELRDLQVSVESQ", "note": "[E4H]", "protein stability index": 4.55}, {"variant": "DEINFLKKLHEEELRDLQVSVESQ", "note": "[E4N]", "protein stability index": 4.91}, {"variant": "DEIMFLKKLHEEELRDLQVSVESQ", "note": "[E4M]", "protein stability index": 4.53}, {"variant": "DEIFFLKKLHEEELRDLQVSVESQ", "note": "[E4F]", "protein stability index": 3.96}, {"variant": "DEIQFLKKLHEEELRDLQVSVESQ", "note": "[E4Q]", "protein stability index": 4.34}, {"variant": "DEIGFLKKLHEEELRDLQVSVESQ", "note": "[E4G]", "protein stability index": 4.57}, {"variant": "DEITFLKKLHEEELRDLQVSVESQ", "note": "[E4T]", "protein stability index": 4.16}, {"variant": "DEISFLKKLHEEELRDLQVSVESQ", "note": "[E4S]", "protein stability index": 4.93}, {"variant": "DEIVFLKKLHEEELRDLQVSVESQ", "note": "[E4V]", "protein stability index": 4.21}, {"variant": "DEIAFLKKLHEEELRDLQVSVESQ", "note": "[E4A]", "protein stability index": 4.36}, {"variant": "DEICFLKKLHEEELRDLQVSVESQ", "note": "[E4C]", "protein stability index": 3.93}, {"variant": "DEIWFLKKLHEEELRDLQVSVESQ", "note": "[E4W]", "protein stability index": 3.18}, {"variant": "DEIYFLKKLHEEELRDLQVSVESQ", "note": "[E4Y]", "protein stability index": 3.9}, {"variant": "DEIPFLKKLHEEELRDLQVSVESQ", "note": "[E4P]", "protein stability index": 4.62}, {"variant": "DEIRFLKKLHEEELRDLQVSVESQ", "note": "[E4R]", "protein stability index": 3.98}, {"variant": "DEIKFLKKLHEEELRDLQVSVESQ", "note": "[E4K]", "protein stability index": 4.18}, {"variant": "DEILFLKKLHEEELRDLQVSVESQ", "note": "[E4L]", "protein stability index": 4.15}, {"variant": "YEIEFLKKLHEEELRDLQVSVESQ", "note": "[D1Y]", "protein stability index": 4.32}, {"variant": "PEIEFLKKLHEEELRDLQVSVESQ", "note": "[D1P]", "protein stability index": 4.53}, {"variant": "MEIEFLKKLHEEELRDLQVSVESQ", "note": "[D1M]", "protein stability index": 4.18}, {"variant": "TEIEFLKKLHEEELRDLQVSVESQ", "note": "[D1T]", "protein stability index": 4.71}, {"variant": "WEIEFLKKLHEEELRDLQVSVESQ", "note": "[D1W]", "protein stability index": 3.97}, {"variant": "VEIEFLKKLHEEELRDLQVSVESQ", "note": "[D1V]", "protein stability index": 4.31}, {"variant": "KEIEFLKKLHEEELRDLQVSVESQ", "note": "[D1K]", "protein stability index": 3.95}, {"variant": "GEIEFLKKLHEEELRDLQVSVESQ", "note": "[D1G]", "protein stability index": 4.53}, {"variant": "CEIEFLKKLHEEELRDLQVSVESQ", "note": "[D1C]", "protein stability index": 3.41}, {"variant": "HEIEFLKKLHEEELRDLQVSVESQ", "note": "[D1H]", "protein stability index": 4.99}, {"variant": "FEIEFLKKLHEEELRDLQVSVESQ", "note": "[D1F]", "protein stability index": 4.07}, {"variant": "EEIEFLKKLHEEELRDLQVSVESQ", "note": "[D1E]", "protein stability index": 4.78}, {"variant": "AEIEFLKKLHEEELRDLQVSVESQ", "note": "[D1A]", "protein stability index": 4.22}, {"variant": "LEIEFLKKLHEEELRDLQVSVESQ", "note": "[D1L]", "protein stability index": 4.63}, {"variant": "IEIEFLKKLHEEELRDLQVSVESQ", "note": "[D1I]", "protein stability index": 3.46}, {"variant": "QEIEFLKKLHEEELRDLQVSVESQ", "note": "[D1Q]", "protein stability index": 3.77}, {"variant": "SEIEFLKKLHEEELRDLQVSVESQ", "note": "[D1S]", "protein stability index": 4.64}, {"variant": "NEIEFLKKLHEEELRDLQVSVESQ", "note": "[D1N]", "protein stability index": 4.78}, {"variant": "REIEFLKKLHEEELRDLQVSVESQ", "note": "[D1R]", "protein stability index": 4.01}, {"variant": "DEYEFLKKLHEEELRDLQVSVESQ", "note": "[I3Y]", "protein stability index": 4.8}, {"variant": "DEREFLKKLHEEELRDLQVSVESQ", "note": "[I3R]", "protein stability index": 5.28}, {"variant": "DENEFLKKLHEEELRDLQVSVESQ", "note": "[I3N]", "protein stability index": 5.46}, {"variant": "DEVEFLKKLHEEELRDLQVSVESQ", "note": "[I3V]", "protein stability index": 4.83}, {"variant": "DEPEFLKKLHEEELRDLQVSVESQ", "note": "[I3P]", "protein stability index": 4.94}, {"variant": "DEGEFLKKLHEEELRDLQVSVESQ", "note": "[I3G]", "protein stability index": 5.05}, {"variant": "DEQEFLKKLHEEELRDLQVSVESQ", "note": "[I3Q]", "protein stability index": 5.08}, {"variant": "DEWEFLKKLHEEELRDLQVSVESQ", "note": "[I3W]", "protein stability index": 4.41}, {"variant": "DELEFLKKLHEEELRDLQVSVESQ", "note": "[I3L]", "protein stability index": 4.84}, {"variant": "DEEEFLKKLHEEELRDLQVSVESQ", "note": "[I3E]", "protein stability index": 5.43}, {"variant": "DECEFLKKLHEEELRDLQVSVESQ", "note": "[I3C]", "protein stability index": 5.09}, {"variant": "DESEFLKKLHEEELRDLQVSVESQ", "note": "[I3S]", "protein stability index": 5.42}, {"variant": "DEKEFLKKLHEEELRDLQVSVESQ", "note": "[I3K]", "protein stability index": 5.18}, {"variant": "DEDEFLKKLHEEELRDLQVSVESQ", "note": "[I3D]", "protein stability index": 5.68}, {"variant": "DEAEFLKKLHEEELRDLQVSVESQ", "note": "[I3A]", "protein stability index": 5.36}, {"variant": "DEMEFLKKLHEEELRDLQVSVESQ", "note": "[I3M]", "protein stability index": 4.96}, {"variant": "DEHEFLKKLHEEELRDLQVSVESQ", "note": "[I3H]", "protein stability index": 5.24}, {"variant": "DETEFLKKLHEEELRDLQVSVESQ", "note": "[I3T]", "protein stability index": 5.25}, {"variant": "DEFEFLKKLHEEELRDLQVSVESQ", "note": "[I3F]", "protein stability index": 4.88}, {"variant": "DNIEFLKKLHEEELRDLQVSVESQ", "note": "[E2N]", "protein stability index": 4.67}, {"variant": "DHIEFLKKLHEEELRDLQVSVESQ", "note": "[E2H]", "protein stability index": 4.08}, {"variant": "DRIEFLKKLHEEELRDLQVSVESQ", "note": "[E2R]", "protein stability index": 4.39}, {"variant": "DPIEFLKKLHEEELRDLQVSVESQ", "note": "[E2P]", "protein stability index": 4.13}, {"variant": "DCIEFLKKLHEEELRDLQVSVESQ", "note": "[E2C]", "protein stability index": 2.04}, {"variant": "DFIEFLKKLHEEELRDLQVSVESQ", "note": "[E2F]", "protein stability index": 2.13}, {"variant": "DKIEFLKKLHEEELRDLQVSVESQ", "note": "[E2K]", "protein stability index": 3.94}, {"variant": "DVIEFLKKLHEEELRDLQVSVESQ", "note": "[E2V]", "protein stability index": 2}, {"variant": "DWIEFLKKLHEEELRDLQVSVESQ", "note": "[E2W]", "protein stability index": 1.69}, {"variant": "DAIEFLKKLHEEELRDLQVSVESQ", "note": "[E2A]", "protein stability index": 2.22}, {"variant": "DQIEFLKKLHEEELRDLQVSVESQ", "note": "[E2Q]", "protein stability index": 3.73}, {"variant": "DIIEFLKKLHEEELRDLQVSVESQ", "note": "[E2I]", "protein stability index": 2.1}, {"variant": "DDIEFLKKLHEEELRDLQVSVESQ", "note": "[E2D]", "protein stability index": 5.01}, {"variant": "DGIEFLKKLHEEELRDLQVSVESQ", "note": "[E2G]", "protein stability index": 3.56}, {"variant": "DMIEFLKKLHEEELRDLQVSVESQ", "note": "[E2M]", "protein stability index": 2.05}, {"variant": "DSIEFLKKLHEEELRDLQVSVESQ", "note": "[E2S]", "protein stability index": 3.65}, {"variant": "DYIEFLKKLHEEELRDLQVSVESQ", "note": "[E2Y]", "protein stability index": 1.91}, {"variant": "DTIEFLKKLHEEELRDLQVSVESQ", "note": "[E2T]", "protein stability index": 2.98}]}, {"variants_of": "B2", "assay": "protein stability index of a GFP-peptide fusion (GPS, HEK-293T) (PSI 1-6); higher = more stable", "details": "c terminus: a fixed tail appended", "values": [{"variant": "YQRPQDSEDMWGDEDFTFGAYQPQ", "note": "[T24Q]", "protein stability index": 2.68}, {"variant": "YQRPQDSEDMWGDEDFTFGAYQPW", "note": "[T24W]", "protein stability index": 1.99}, {"variant": "YQRPQDSEDMWGDEDFTFGAYQPY", "note": "[T24Y]", "protein stability index": 2.44}, {"variant": "YQRPQDSEDMWGDEDFTFGAYQPP", "note": "[T24P]", "protein stability index": 3.17}, {"variant": "YQRPQDSEDMWGDEDFTFGAYQPV", "note": "[T24V]", "protein stability index": 2.63}, {"variant": "YQRPQDSEDMWGDEDFTFGAYQPR", "note": "[T24R]", "protein stability index": 2.38}, {"variant": "YQRPQDSEDMWGDEDFTFGAYQPS", "note": "[T24S]", "protein stability index": 2.67}]}]}
